target: T1, Anti-CD28 scFv (VH-linker 1-VL) (biotinylated (site not stated)); experiment: phage binding ELISA on captured anti-CD28 scFv, wells pre-incubated with soluble CD28 (competitor);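 also: crude clonal phage supernatants added without washing, bound phage detected by HRP-conjugated anti-M13 antibody, control wells held blocking buffer alone instead of CD28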
T1 construct: biotinylated and captured on neutravidin coated plates in the phage ELISA
T1 sequence (scFv, as listed by the source): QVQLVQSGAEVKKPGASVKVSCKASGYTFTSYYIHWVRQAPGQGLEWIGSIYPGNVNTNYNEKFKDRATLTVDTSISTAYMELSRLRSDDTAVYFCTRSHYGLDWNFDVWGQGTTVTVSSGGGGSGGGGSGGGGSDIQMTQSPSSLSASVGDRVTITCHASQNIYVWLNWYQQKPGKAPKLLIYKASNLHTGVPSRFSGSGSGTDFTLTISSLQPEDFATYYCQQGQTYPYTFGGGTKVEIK

Binder	CD28 scFv signal in presence of CD28
IDWCPRALWDACLA [Phage-332]	0.164
MDWCPRFLWDYCFA [Phage-335]	0.207
MDWCPRSLWAQCFY [Phage-364]	0.14
MDWCPRDLWNWCFN [Phage-336]	0.39
MDWCPRALWDHCFN [Phage-328]	0.293
MSWCPIDLWSECFA [Phage-340]	0.148
MDWCPMFLWHECFS [Phage-360]	0.193
MDWCPRFLWNECFY [Phage-338]	0.287
MFWCPITLWNECFN [Phage-326]	0.143
IDWCPLHLWHECYH [Phage-353]	0.182
MTWCPAYLWHECFN [Phage-370]	0.139
MHWCPRHLWSECFN [Phage-361]	0.478
MDWCPRHLWYECFS [Phage-324]	0.163
MDWCPRDLWTQCFF [Phage-343]	0.119
MDFCPRFLWHECFN [Phage-345]	0.225
MDWCPKPLWHVCFA [Phage-337]	0.152
MDWCPRYLWDECFS [Phage-334]	0.164
MHWCPRDLWHVCFN [Phage-327]	0.15
MDWCPRHLWVHCFS [Phage-344]	0.173
MDWCPTYLWNVCFA [Phage-323]	0.132
MAWCPWYLWDECFN [Phage-348]	0.267
LDWCPRHLWALCFN [Phage-349]	0.24
MDWCPRTLWDQCFF [Phage-339]	0.314
MDWCPRHLWHACFS [Phage-346]	0.167
MDWCPRNLWHECFA [Phage-342]	0.175
MDWCPMNLWHECFA [Phage-351]	0.16

Binder	CD28 scFv signal in presence of CD28
MDWCPRPLWHECFA [Phage-359]	0.138
LHWCPTSMWTYCYY [Phage-392]	2.46
MDWCPAYLWDECFA [Phage-325]	0.163
MDWCPRILWHECFS [Phage-362]	0.174
MDWCPRLLWHECFN [Phage-357]	0.109
MDWCPMYLWDECFF [Phage-356]	0.178
MDWCPRHLWDECFN [Phage-341]	0.268
MDWCPRHLWLECFN [Phage-387]	0.074
MDWCPRHLWDECFY [Phage-331]	0.146
MDWCPRYLWLECFN [Phage-354]	0.368
MDWCPRHLWIECFN [Phage-322]	0.376
MHWCPRDLWYECFA [Phage-369]	0.108
MDWCPTDLWHECFA [Phage-333]	0.154
MDWCPSYLWPVCFN [Phage-365]	0.131
MDWCPRALWNVCFA [Phage-329]	0.249
MDWCPIHLWYECFN [Phage-352]	0.203
IDWCPMHMWDFCYN [Phage-390]	0.232
MNWCPMHLWAECFN [Phage-363]	0.14
MSWCPPYLWTVCYN [Phage-368]	0.326
MDWCPSFLWYECFN [Phage-367]	0.104
MDWCPLFLWDQCFN [Phage-347]	0.264
MDWCPRYLWVDCFA [Phage-372]	0.218
MDWCPSDMWANCFF [Phage-389]	0.316
MDWCPWFLWNECFN [Phage-350]	0.279
MDWCPRFLWDVCFN [Phage-330]	0.309
MHWCPLYLWDECFY [Phage-366]	0.376

target: T1, Anti-CD28 scFv (VH-linker 1-VL); experiment: phage binding ELISA on captured biotinylated anti-CD28 scFv;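 also: crude clonal phage supernatants applied to the wells, bound phage read out with an HRP-conjugated anti-M13 antibody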
Method: Clonal phage were harvested as crude supernatants and screened via standard enzyme linked immunosorbent assays (ELISAs). […] Prior to the addition of clonal phage, wells were incubated with blocking buffer and CD28 soluble protein or blocking buffer alone. Without washing or aspirating, clonal phage supernatants were then added to the wells and incubated for a short time. Wells were then washed followed by detection of bound phage using a horse radish peroxidase conjugated anti-M13 antibody.

Binder	CD28 scFv signal
IDWCPRALWDACLA [Phage-332]	2.1
MDWCPRFLWDYCFA [Phage-335]	2.03
MDWCPRSLWAQCFY [Phage-364]	1.39
MDWCPRDLWNWCFN [Phage-336]	2.03
MDWCPRALWDHCFN [Phage-328]	2.15
MDWCPSNMWNECFF [Phage-416]	0.983
MSWCPIDLWSECFA [Phage-340]	1.99
MDWCPMFLWHECFS [Phage-360]	1.44
MDWCPRFLWNECFY [Phage-338]	2
MFWCPITLWNECFN [Phage-326]	2.15
IDWCPLHLWHECYH [Phage-353]	1.69
MTWCPAYLWHECFN [Phage-370]	0.985
MHWCPRHLWSECFN [Phage-361]	1.43
MDWCPRHLWYECFS [Phage-324]	2.17
MDWCPRDLWTQCFF [Phage-343]	1.93
MDFCPRFLWHECFN [Phage-345]	1.91
MDWCPKPLWHVCFA [Phage-337]	2.02
MDWCPRYLWDECFS [Phage-334]	2.06
MHWCPRDLWHVCFN [Phage-327]	2.15
MDWCPRHLWVHCFS [Phage-344]	1.91
MDWCPTYLWNVCFA [Phage-323]	2.21
MAWCPWYLWDECFN [Phage-348]	1.81
LDWCPRHLWALCFN [Phage-349]	1.78
MDWCPRTLWDQCFF [Phage-339]	1.99
MDWCPRHLWHACFS [Phage-346]	1.83
MDWCPRNLWHECFA [Phage-342]	1.97

Binder	CD28 scFv signal
MDWCPMNLWHECFA [Phage-351]	1.74
MDWCPRPLWHECFA [Phage-359]	1.44
MDWCPAYLWDECFA [Phage-325]	2.17
MDWCPRILWHECFS [Phage-362]	1.39
MDWCPRLLWHECFN [Phage-357]	1.6
MDWCPMYLWDECFF [Phage-356]	1.65
VDWCPAHMWNECYN [Phage-419]	0.664
MDWCPRHLWDECFN [Phage-341]	1.98
MDWCPRHLWLECFN [Phage-387]	0.066
MDWCPRHLWDECFY [Phage-331]	2.13
MDWCPRYLWLECFN [Phage-354]	1.69
MDWCPRHLWIECFN [Phage-322]	2.21
MHWCPRDLWYECFA [Phage-369]	0.995
MDWCPTDLWHECFA [Phage-333]	2.07
MDWCPSYLWPVCFN [Phage-365]	1.18
MDWCPRALWNVCFA [Phage-329]	2.14
MDWCPPHLWHECFF [Phage-358]	1.45
MDWCPIHLWYECFN [Phage-352]	1.73
MNWCPMHLWAECFN [Phage-363]	1.39
MSWCPPYLWTVCYN [Phage-368]	1.1
MDWCPSFLWYECFN [Phage-367]	1.13
MDWCPLFLWDQCFN [Phage-347]	1.82
MDWCPRYLWVDCFA [Phage-372]	0.917
MDWCPWFLWNECFN [Phage-350]	1.77
MDWCPRFLWDVCFN [Phage-330]	2.14
MHWCPLYLWDECFY [Phage-366]	1.16

target: T2, anti-CD28 scFv (VH-linker 1-VL) (biotinylated (site not stated)); experiment: phage ELISA; scFv wells pre-incubated with soluble CD28 (competitor);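 also: crude clonal phage supernatants added to wells pretreated with soluble CD28 in blocking buffer, bound phage read via HRP-linked anti-M13 antibody, reference wells got blocking buffer only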
T2 construct: Captured as biotinylated scFv on neutravidin coated plates in the phage ELISA
T2 sequence (scFv, as listed by the source): as above

Binder	CD28 scFv signal in presence of CD28
MDWCPRYLWNVCFA (on phage (pIII fusion)) [Phage-289 clonal phage peptide]	0.28
